{"source": "patent US20240197834A1", "about": "“PHARMACEUTICAL COMPOSITION FOR PREVENTING OR TREATING CHRONIC RENAL DISEASE INCLUDING GLUCAGON DERIVATIVE” (HANMI PHARM. CO., LTD., priority 2021, published 2024)", "assay": "pI of native glucagon and glucagon derivatives", "assay_type": "physicochemical", "method": "Accordingly, as described in Table 1 below, a native glucagon and glucagon derivatives having equivalent activity thereto were first prepared. Referring to WO 2016/108586, WO 2017/003191, and WO 2018/004283, the glucagon derivatives were synthesized, and pl and in vitro activity thereof were measured.", "note": "Bridge positions count the residues as written; N and C are the ends. Square brackets hold non-standard residues; d marks the D form. Ends that are not written are not given here. Aib = CC(C)(N)C(=O)O", "data": [{"sequence": "HSQGTFTSDYSKYLDCDRAQDFVQWLMNT (glucagon derivative) [SEQ ID NO: 2]", "values": [{"measurement": "pl", "value": 4.56}]}, {"sequence": "HSQGTFTSDYSKYLDCERAQDFVQWLMNT (glucagon derivative) [SEQ ID NO: 3]", "values": [{"measurement": "pl", "value": 4.66}]}, {"sequence": "HSQGTFTSDYSKYLDSCDAQDFVQWLMNT (glucagon derivative) [SEQ ID NO: 4]", "values": [{"measurement": "pl", "value": 4.13}]}, {"sequence": "HSQGTFTSDYSKYLDSCEADDFVQWLMNT (glucagon derivative) [SEQ ID NO: 6]", "values": [{"measurement": "pl", "value": 4.03}]}, {"sequence": "HSQGTFTSDYSKYLDSCEAQDFVQWLMNT (glucagon derivative) [SEQ ID NO: 5]", "values": [{"measurement": "pl", "value": 4.22}]}, {"sequence": "SQGTFTSDYSKYLDECRAKEFVQWLMNT (lactam 15-19) [SEQ ID NO: 32]", "values": [{"measurement": "pl", "value": 4.78}]}, {"sequence": "WXQGTFTSDYSKCLDERRAKDFVQWLMNT (W[Aib]QGTFTSDYSKCLDERRAKDFVQWLMNT; lactam 16-20) [SEQ ID NO: 30]", "values": [{"measurement": "pl", "value": 4.44}]}, {"sequence": "WXQGTFTSDYSKYCDERRAKEFVQWLMNT (W[Aib]QGTFTSDYSKYCDERRAKEFVQWLMNT; lactam 16-20) [SEQ ID NO: 34]", "values": [{"measurement": "pl", "value": 6.21}]}, {"sequence": "WXQGTFTSDYSKYLDECRAKDFVQWLMNT (W[Aib]QGTFTSDYSKYLDECRAKDFVQWLMNT; lactam 16-20) [SEQ ID NO: 26]", "values": [{"measurement": "pl", "value": 4.68}]}, {"sequence": "WXQGTFVSDYSKYLDECRAKDFVQWLMNT (W[Aib]QGTFVSDYSKYLDECRAKDFVQWLMNT; lactam 16-20) [SEQ ID NO: 28]", "values": [{"measurement": "pl", "value": 4.68}]}, {"sequence": "YSQGTFTSDYSKYLDSCEADDFVQWLMNT (glucagon derivative) [SEQ ID NO: 7]", "values": [{"measurement": "pl", "value": 3.71}]}, {"sequence": "YXQGTFCSDYSKYLDERRAKDFVQWLMNT (Y[Aib]QGTFCSDYSKYLDERRAKDFVQWLMNT; lactam 16-20) [SEQ ID NO: 41]", "values": [{"measurement": "pl", "value": 6.03}]}, {"sequence": "YXQGTFCSDYSKYLDERRAKEFVQWLMNT (Y[Aib]QGTFCSDYSKYLDERRAKEFVQWLMNT; lactam 16-20) [SEQ ID NO: 38]", "values": [{"measurement": "pl", "value": 6.15}]}, {"sequence": "YXQGTFCSDYSKYLDSRRAQDFVQWLMNT (Y[Aib]QGTFCSDYSKYLDSRRAQDFVQWLMNT) [SEQ ID NO: 42]", "values": [{"measurement": "pl", "value": 6.03}]}, {"sequence": "YXQGTFTSDCSKYLDERRAKEFVQWLMNT (Y[Aib]QGTFTSDCSKYLDERRAKEFVQWLMNT; lactam 16-20) [SEQ ID NO: 36]", "values": [{"measurement": "pl", "value": 6.21}]}, {"sequence": "YXQGTFTSDCSKYLDSRRAQDFVQWLMNT (Y[Aib]QGTFTSDCSKYLDSRRAQDFVQWLMNT) [SEQ ID NO: 43]", "values": [{"measurement": "pl", "value": 6.03}]}, {"sequence": "YXQGTFTSDYSCYLDEKRAKEFVQWLMNT (Y[Aib]QGTFTSDYSCYLDEKRAKEFVQWLMNT) [SEQ ID NO: 45]", "values": [{"measurement": "pl", "value": 4.78}]}, {"sequence": "YXQGTFTSDYSCYLDSRRAQDFVQWLMNT (Y[Aib]QGTFTSDYSCYLDSRRAQDFVQWLMNT) [SEQ ID NO: 13]", "values": [{"measurement": "pl", "value": 4.43}]}, {"sequence": "YXQGTFTSDYSKCLDEKRAKEFVQWLMNT (Y[Aib]QGTFTSDYSKCLDEKRAKEFVQWLMNT; lactam 16-20) [SEQ ID NO: 24]", "values": [{"measurement": "pl", "value": 6.21}]}, {"sequence": "YXQGTFTSDYSKCLDERRAKDFVQWLMNT (Y[Aib]QGTFTSDYSKCLDERRAKDFVQWLMNT; lactam 16-20) [SEQ ID NO: 29]", "values": [{"measurement": "pl", "value": 6.15}]}, {"sequence": "YXQGTFTSDYSKYCDEKRAKEFVQWLMNT (Y[Aib]QGTFTSDYSKYCDEKRAKEFVQWLMNT; lactam 16-20) [SEQ ID NO: 23]", "values": [{"measurement": "pl", "value": 6.20}]}, {"sequence": "YXQGTFTSDYSKYCDERRAKEFVQWLMNT (Y[Aib]QGTFTSDYSKYCDERRAKEFVQWLMNT; lactam 16-20) [SEQ ID NO: 35]", "values": [{"measurement": "pl", "value": 6.2}]}, {"sequence": "YXQGTFTSDYSKYLCEKRAKEFVQWLMNT (Y[Aib]QGTFTSDYSKYLCEKRAKEFVQWLMNT; lactam 16-20) [SEQ ID NO: 19]", "values": [{"measurement": "pl", "value": 8.12}]}, {"sequence": "YXQGTFTSDYSKYLCEKRAQDFVVWLMNT (Y[Aib]QGTFTSDYSKYLCEKRAQDFVVWLMNT) [SEQ ID NO: 15]", "values": [{"measurement": "pl", "value": 6.11}]}, {"sequence": "YXQGTFTSDYSKYLDCKRAKEFVQWLMNT (Y[Aib]QGTFTSDYSKYLDCKRAKEFVQWLMNT; lactam 17-21) [SEQ ID NO: 31]", "values": [{"measurement": "pl", "value": 8.12}]}, {"sequence": "YXQGTFTSDYSKYLDCKRAKEFVQWLMNT [SEQ ID NO: 14] (Y[Aib]QGTFTSDYSKYLDCKRAKEFVQWLMNT)", "values": [{"measurement": "pl", "value": 8.12}]}, {"sequence": "YXQGTFTSDYSKYLDCRRAQVFVQWLMRT (Y[Aib]QGTFTSDYSKYLDCRRAQVFVQWLMRT) [SEQ ID NO: 16]", "values": [{"measurement": "pl", "value": 9.11}]}, {"sequence": "YXQGTFTSDYSKYLDCVRAQDFVQWLMRT (Y[Aib]QGTFTSDYSKYLDCVRAQDFVQWLMRT) [SEQ ID NO: 17]", "values": [{"measurement": "pl", "value": 6.03}]}, {"sequence": "YXQGTFTSDYSKYLDECRAKEFVQWLMNT (Y[Aib]QGTFTSDYSKYLDECRAKEFVQWLMNT; lactam 16-20) [SEQ ID NO: 20]", "values": [{"measurement": "pl", "value": 4.78}]}, {"sequence": "YXQGTFTSDYSKYLDEKCAKEFVQWLMNT [SEQ ID NO: 11] (Y[Aib]QGTFTSDYSKYLDEKCAKEFVQWLMNT)", "values": [{"measurement": "pl", "value": 4.78}]}, {"sequence": "YXQGTFTSDYSKYLDEKCAKEFVQWLMNT [SEQ ID NO: 21] (Y[Aib]QGTFTSDYSKYLDEKCAKEFVQWLMNT; lactam 16-20)", "values": [{"measurement": "pl", "value": 4.78}]}, {"sequence": "YXQGTFTSDYSKYLDEKRAKCFVQWLMNT (Y[Aib]QGTFTSDYSKYLDEKRAKCFVQWLMNT; lactam 16-20) [SEQ ID NO: 25]", "values": [{"measurement": "pl", "value": 8.12}]}, {"sequence": "YXQGTFTSDYSKYLDEKRAKEFVQWLMNTC (Y[Aib]QGTFTSDYSKYLDEKRAKEFVQWLMNTC; lactam 16-20) [SEQ ID NO: 12]", "values": [{"measurement": "pl", "value": 6.20}]}, {"sequence": "YXQGTFTSDYSKYLDEKRCKEFVQWLMNT (Y[Aib]QGTFTSDYSKYLDEKRCKEFVQWLMNT; lactam 16-20) [SEQ ID NO: 22]", "values": [{"measurement": "pl", "value": 6.20}]}, {"sequence": "YXQGTFTSDYSKYLDERRAKEFVQWLMNTC (Y[Aib]QGTFTSDYSKYLDERRAKEFVQWLMNTC; lactam 16-20) [SEQ ID NO: 37]", "values": [{"measurement": "pl", "value": 6.21}]}, {"sequence": "YXQGTFTSDYSKYLDSCDADDFVVWLINT (Y[Aib]QGTFTSDYSKYLDSCDADDFVVWLINT) [SEQ ID NO: 10]", "values": [{"measurement": "pl", "value": 3.66}]}, {"sequence": "YXQGTFTSDYSKYLDSCDAQDFVQWLINT (Y[Aib]QGTFTSDYSKYLDSCDAQDFVQWLINT) [SEQ ID NO: 8]", "values": [{"measurement": "pl", "value": 3.77}]}, {"sequence": "YXQGTFTSDYSKYLDSCDAQDFVVWLINT (Y[Aib]QGTFTSDYSKYLDSCDAQDFVVWLINT) [SEQ ID NO: 9]", "values": [{"measurement": "pl", "value": 3.77}]}, {"sequence": "YXQGTFTSDYSKYLDSRRACDFRLWLMNT (Y[Aib]QGTFTSDYSKYLDSRRACDFRLWLMNT) [SEQ ID NO: 18]", "values": [{"measurement": "pl", "value": 8.15}]}, {"sequence": "YXQGTFTSDYSKYLDSRRAQDFVQWLMNT (X non-natural residue; glucagon derivative; (2) Xaa is aminoisobutyric acid (Aib)) [SEQ ID NO: 33]", "values": [{"measurement": "pl", "value": 6.04}]}, {"sequence": "YXQGTFTSDYSKYLDSRRAQDFVQWLMNTC (glucagon derivative; (2) Xaa is aminoisobutyric acid (Aib)) [SEQ ID NO: 44]", "values": [{"measurement": "pl", "value": 6.21}]}, {"sequence": "YXQGTFVSDCSKYLDERRAKDFVQWLMNT (Y[Aib]QGTFVSDCSKYLDERRAKDFVQWLMNT; lactam 16-20) [SEQ ID NO: 39]", "values": [{"measurement": "pl", "value": 6.15}]}, {"sequence": "YXQGTFVSDYSKYLDECRAKDFVQWLMNT (Y[Aib]QGTFVSDYSKYLDECRAKDFVQWLMNT; lactam 16-20) [SEQ ID NO: 27]", "values": [{"measurement": "pl", "value": 4.68}]}, {"sequence": "YXQGTFVSDYSKYLDERRAKDFVQWLMNTC (Y[Aib]QGTFVSDYSKYLDERRAKDFVQWLMNTC; lactam 16-20) [SEQ ID NO: 40]", "values": [{"measurement": "pl", "value": 6.15}]}]}
